Measurements as given in paper PMC6543813.
Like-named read-outs stand apart in the source and are kept apart here.

What was measured:
[1] = molecular target: recombinant VLDLR(1–8) fragment of the VLDL receptor; assay: SPR
[2] = molecular target: recombinant VLDLR(1–8) fragment of the VLDL receptor; assay: SPR; remark: listed apart in the source
[3] = molecular target: recombinant dimeric (β15–66)2 fragment (UniProt P02675); assay: ELISA
[4] = molecular target: recombinant dimeric (β15–66)2 fragment (UniProt P02675); assay: ELISA; remark: listed apart in the source
[5] = molecular target: (β15–66)2-R^30 mutant fragment (UniProt P02675); assay: ELISA
[6] = molecular target: (β15–66)2-R^57 mutant fragment (UniProt P02675); assay: ELISA
[7] = molecular target: (β15–66)2-K^21K^22 mutant fragment (UniProt P02675); assay: ELISA
[8] = molecular target: (β15–66)2-K^53K^54K^58 mutant fragment (UniProt P02675); assay: ELISA
[9] = molecular target: recombinant (β15–66)2-R^17 mutant with Arg17Glu mutation (UniProt P02675); assay: ELISA

Substance: (β15–66)2-R^42R^44K^47 mutant fragment (from UniProt P02675 45-94) (domain or fragment)
- Kd [1]: 6.1 µM

Substance: (β15–66)2-K^21K^22R^23 mutant fragment (from UniProt P02675 45-94) (domain or fragment)
- Kd [1]: 0.175 µM

Substance: (β15–66)2-R^42R^44 mutant fragment (from UniProt P02675 45-94) (domain or fragment)
- Kd [1]: 0.204 µM

Substance: recombinant dimeric (β15–66)2 fragment (from UniProt P02675 45-94) (domain or fragment)
- Kd [1]: 0.0111 µM
- Kd [2]: 0.0205 µM

Substance: recombinant monomeric β15–64 fragment (from UniProt P02675 45-94) (domain or fragment)
- Kd [1]: 6.1 µM

Substance: (β15–66)2-K^21K^22 mutant fragment (from UniProt P02675 45-94) (domain or fragment)
- Kd [1]: 0.037 µM

Substance: (β15–66)2-K^53K^54R^57K^58 mutant fragment (from UniProt P02675 45-94) (domain or fragment)
- Kd [1]: 11.7 µM

Substance: (β15–66)2-K^53K^54K^58 mutant fragment (from UniProt P02675 45-94) (domain or fragment)
- Kd [1]: 0.25 µM

Substance: recombinant VLDLR(1–8) fragment of the VLDL receptor (domain or fragment)
- Kd [3]: 0.0341 µM
- Kd [4]: 0.0135 µM
- Kd [5]: 0.0063 µM
- Kd [6]: 0.0064 µM
- Kd [7]: 0.021 µM
- Kd [8]: 0.124 µM
- Kd [9]: 0.0073 µM
